The record followed here is patent US20040048377A1 (published 2004).

First the molecules themselves.
B1: Nkx6.1 (full-length, rNkx6.1) (other, rat, UniProt O35762 1-365, looked up)
chain: MLAVGAMEGPRQSAFLLSSPPLAALHSMAEMKTPLYPAAYPPLPTGPPSSSSSSSSSSSPSPPLGAHNPGGLKPPAAGGLSSLGSPPQQLSAATPHGINDILSRPSMPVASGAALPSASPSGSSSSSSSSASATSASAAAAAAAAAAAAAASSPAGLLAGLPRFSSLSPPPPPPGLYFSPSAAAVAAVGRYPKPLAELPGRTPIFWPGVMQSPPWRDARLACTPHQGSILLDKDGKRKHTRPTFSGQQIFALEKTFEQTKYLAGPERARLAYSLGMTESQVKVWFQNRRTKWRKKHAAEMATAKKKQDSETERLKGTSENEEDDDDYNKPLDPNSDDEKITQLLKKHKSSGGSLLLHASEAEGSS
notes: mature; Full-length protein made in TNT rabbit reticulocyte lysate; 35S-labelled in the GST co-precipitation, immobilised on antibody-proteinA-sepharose in the immuno-precipitation
B2: mouse Grg4 (other, UniProt Q62441 1-773, looked up)
chain: MIRDLSKMYPQTRHPAPHQPAQPFKFTISESCDRIKEEFQFLQAQYHSLKLECEKLASEKTEMQRHYVMYYEMSYGLNIEMHKQAEIVKRLNAICAQVIPFLSQEHQQQVVQAVERAKQVTMAELNAIIGQQLQAQHLSHGHGLPVPLTPHPSGLQPPAIPPIGSSAGLLALSSALGGQSHLPIKDEKKHHDNDHQRDRDSIKSSSVSPSASFRGSEKHRNSTDYSSESKKQKTEEKEIAARYDSDGEKSDDNLVVDVSNEDPSSPRGSPAHSPRENGLDKTRLLKKDAPISPASVASSSSTPSSKSKELSLNEKSTTPVSKSNTPTPRTDAPTPGSNSTPGLRPVPGKPPGVDPLASSLRTPMAVPCPYPTPFGIVPHAGMNGELTSPGAAYAGLHNISPQMSAAAAAAAAAAAYGRSPVVGFDPHHHMRVPAIPPNLTGIPGGKPAYSFHVSADGQMQPVPFPPDALIGPGIPRHARQINTLNHGEVVCAVTISNPTRHVYTGGKGCVKVWDISHPGNKSPVSQLDCLNRDNYIRSCRLLPDGRTLIVGGEASTLSIWDLAAPTPRIKAELTSSAPACYALAISPDSKVCFSCCSDGNIAVWDLHNQTLVRQFQGHTDGASCIDISNDGTKLWTGGLDNTVRSWDLREGRQLQQHDFTSQIFSLGYCPTGEWLAVGMENSNVEVLHVTKPDKYQLHLHESCVLSLKFAHCGKWFVSTGKDNLLNAWRTPYGASIFQSKESSSVLSCDISVDDKYIVTGSGDKKATVYEVIY
notes: 35S-labelled, made in TNT rabbit reticulocyte lysate for the immuno-precipitation; expressed from a vector in COS-7 cells in the reporter assays; also called mGrg4

In the experiment “mouse Grg4” the target is B2. The experiment in a line: immuno-precipitation, 35S-labelled Grg4, Nkx protein on antibody-proteinA-sepharose. The method, then:
(§1) Immuno-precipitation (IP) assays using rabbit Nkx2.2 (Ericson et al., 1997) and Nkx6.1 antibodies (Jensen et al., 1996) were performed as described by Current protocols 2nd ed. ³⁵S-labelled mGrg4 was synthesized using the TNT coupled rabbit reticulocyte lysate. Electric mobility shift assays were performed as described (Jorgensen et al., 1999). Briefly, the isolated homeodomains of Nkx6.1, Nkx6.2, Nkx2.2 and Nkx2.9HD were synthesized using the TNT coupled rabbit reticulocyte lysate and tested for their binding specificity in vitro using ³²P-labelled double stranded DNA oligonucleotides containing defined Nkx6.1 (Jorgensen et al., 1999) or Nkx2.1 binding sites (Damante et al., 1996).
(§2) An immuno-precipitation assay was then used to test if mammalian Gro/TLE family members could also bind to Nkx proteins, and if the TN domain is required for this interaction. […] Carboxy-terminal directed antibodies that recognise both full-length proteins as well as truncated variants lacking the TN domain were used (Ericson et al., 1997; Jensen et al., 1996). […]
(§3) Deletion of the TN domain in Nkx2.2 and Nkx6.1 reduced the interaction with Grg4 (9-fold for Nkx2.2ATN and 5-fold for Nkx6.1ΔTN, compared to the full-length proteins). […] No significant interaction was detected between Grg4 and antibody-proteinA-sepharose complexes.

Experiment [1] has as its target T1, Nkx2.2ΔTN (Nkx2.2 with the TN domain deleted, Δaa 2-26) (chick).
T1 construct: range 1-1;range 27-C-terminus; Deletion construct, immobilised on antibody-proteinA-sepharose in the immuno-precipitation; also called cNkx2.2^?TN; NKx2.2^?TN
The experiment is described as above. The protocol:
as §1, §2, §3

As to B1, the binding result with mouse Grg4 is on record as “binds”. On to B2, for which the “fold reduction of the interaction with Grg4 compared to the full-length protein” value in experiment [1] was 9 fold.
